Results: patent US20180369425A1, “LINKED AND OTHER pH-TRIGGERED COMPOUNDS” (priority 2017, published 2018)
Residues, ends and D or L forms follow the SMILES beside them. *: point of attachment. X1 = CC1(C)C(/C=C/C=C/C=C/C=C2/N(CCCCCC(=O)NCCN3C(=O)CC(*)C3=O)c3ccc4ccccc4c3C2(C)C)=[N+](CCCCS(=O)(=O)[O-])c2ccc3ccccc3c21

Assay: in vivo
Conditions: female, BALB/cAcNHsd, mouse, iv, 2.5 nmol, 4 hours post injection, constant up to 16 hours, rough estimation, read-out: amount of ICG-pHLIP in tumors
Procedure: The fluorescence signals in organs and tissue were also measured in the tissue/organ homogenates and compared with the signals from the control tissue/organ homogenates (collected from control mice) mixed with known amounts of ICG-pHLIP. About 100 mg of tissue (tumor, liver or kidney) were homogenized with 2.5× (about 250 μL) volumes of DMSO using BioMasher II disposable homogenizers (DiagnoCine LLC). 30 μl of homogenate was placed into 384 well plate and imaged using an Odyssey IR scanner. Tumor, liver or kidney homogenates of control mice, mixed with known concentrations of ICG-pHLIP were used to establish the calibration curve. First, note that the fluorescence signals obtained on the control tumor, liver and kidney mixed with the known amounts of ICG-pHLIP were the same. Second, the course of signal changes in tumor, liver and kidney (data not shown) was in excellent correlation with the course of the kinetics presented on FIGS. 18A-F. It is rather difficult to establish precisely the amount of ICG-pHLIP in the tissue and organ samples; however, rough estimations can be made using the calibration curve. […] At 26 hours, when the blood is cleared and the fluorescence signal in all organs is minimal, the contrast between tumor and surrounding tissue is very significant.

CC(C)C[C@H](NC(=O)[C@H](Cc1ccc(O)cc1)NC(=O)[C@H](C)NC(=O)[C@H](CCCNC(=N)N)NC(=O)[C@H](Cc1c[nH]c2ccccc12)NC(=O)[C@@H]1CCCN1C(=O)[C@H](CC(N)=O)NC(=O)[C@H](CCC(N)=O)NC(=O)[C@H](CC(=O)O)NC(=O)[C@H](CC(=O)O)NC(=O)[C@H](CSC1CC(=O)N(CCNC(=O)CCCCCN2/C(=C/C=C/C=C/C=C/C3=[N+](CCCCS(=O)(=O)[O-])c4ccc5ccccc5c4C3(C)C)C(C)(C)c3c2ccc2ccccc32)C1=O)NC(=O)[C@H](C)N)C(=O)N[C@@H](CC(=O)O)C(=O)N[C@@H](CC(C)C)C(=O)N[C@@H](CC(C)C)C(=O)N[C@@H](Cc1ccccc1)C(=O)N1CCC[C@H]1C(=O)N[C@H](C(=O)N[C@@H](CC(=O)O)C(=O)N[C@H](C(=O)N[C@@H](CC(C)C)C(=O)N[C@@H](CC(C)C)C(=O)N[C@@H](CC(C)C)C(=O)N[C@@H](CC(=O)O)C(=O)N[C@@H](CC(C)C)C(=O)N[C@@H](CC(C)C)C(=O)N[C@@H](Cc1c[nH]c2ccccc12)C(=O)N[C@@H](C)C(=O)O)[C@@H](C)O)[C@@H](C)O (stereo partly shown) [ICG-pHLIP] (H-AC(X1)DDQNPWRAYLDLLFPTDTLLLDLLWA-OH)
tissue uptake: 10 to 15 %ID/g
